Measured values taken from the supplement of paper PMC9112550, “Optimization of the antimicrobial peptide Bac7 by deep mutational scanning” (BMC Biology, 2022).

System: Escherichia coli TOP10
Test: shrunken log2 fold change of peptide-encoding DNA abundance (4.5 h post-induction vs induction); higher = less antimicrobial activity (less host growth inhibition)
Conditions: time post-induction: 4.5 h; library: site-saturation at positions 5, 18, 19, 20
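Note: peptides expressed intracellularly from a pBAD plasmid library in pooled LB shake-flask culture, induced with 0.3% L-arabinose, DNA abundance read by NGS, three biological replicates, DESeq2 with apeglm shrinkage.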

Sequence	shrunken log2 fold change
RRIRLRPPRLPRPRPRPMNMPRP	-0.0334
RRIRPRPPRLPRPRPRPWVCPRP	0.23
RRIRFRPPRLPRPRPRPTRQPRP	0.298
RRIRWRPPRLPRPRPRPYYQPRP	-0.297
RRIRVRPPRLPRPRPRPPDQPRP	0.124
RRIRFRPPRLPRPRPRPMESPRP	0.0556
RRIRYRPPRLPRPRPRPAPYPRP	-0.557
RRIRARPPRLPRPRPRPDAHPRP	0.876
RRIRCRPPRLPRPRPRPKGVPRP	0.595
RRIRHRPPRLPRPRPRPIYVPRP	-0.0627
RRIRIRPPRLPRPRPRPRCGPRP	0.0437
RRIRRRPPRLPRPRPRPQKIPRP	0.0999
RRIRRRPPRLPRPRPRPMQPPRP	0.0874
RRIRIRPPRLPRPRPRPYHMPRP	-0.123
RRIRGRPPRLPRPRPRPNREPRP	-0.0791
RRIRWRPPRLPRPRPRPPEGPRP	0.163
RRIRARPPRLPRPRPRPKGYPRP	0.049
RRIRDRPPRLPRPRPRPDANPRP	0.163
RRIRARPPRLPRPRPRPQGFPRP	0.807
RRIRHRPPRLPRPRPRPWRWPRP	0.16
RRIRVRPPRLPRPRPRPPSVPRP	0.129
RRIRKRPPRLPRPRPRPEDVPRP	-0.04
RRIRLRPPRLPRPRPRPFEVPRP	0.0377

Sequence	shrunken log2 fold change
RRIRDRPPRLPRPRPRPCMTPRP	0.33
RRIRPRPPRLPRPRPRPMMPPRP	-0.141
RRIRARPPRLPRPRPRPPWRPRP	0.816
RRIRWRPPRLPRPRPRPMCQPRP	0.132
RRIRDRPPRLPRPRPRPCCEPRP	0.961
RRIRHRPPRLPRPRPRPRGLPRP	0.369
RRIRWRPPRLPRPRPRPLLFPRP	-0.0366
RRIRFRPPRLPRPRPRPTDRPRP	0.243
RRIRARPPRLPRPRPRPVADPRP	1.44
RRIRRRPPRLPRPRPRPPFTPRP	0.0961
RRIRGRPPRLPRPRPRPASWPRP	2.63
RRIRVRPPRLPRPRPRPIHTPRP	-0.305
RRIRGRPPRLPRPRPRPWVIPRP	-0.257
RRIRVRPPRLPRPRPRPQCNPRP	-0.449
RRIRARPPRLPRPRPRPYFEPRP	-0.577
RRIRCRPPRLPRPRPRPEHMPRP	-0.201
RRIRGRPPRLPRPRPRPMEKPRP	0.0535
RRIRTRPPRLPRPRPRPWISPRP	-0.0102
RRIRYRPPRLPRPRPRPWINPRP	-0.803
RRIRYRPPRLPRPRPRPDLPPRP	-0.0756
RRIRFRPPRLPRPRPRPMCLPRP	-0.564
RRIRGRPPRLPRPRPRPANIPRP	-0.0276
RRIRWRPPRLPRPRPRPNHLPRP	-0.281

Sequence	shrunken log2 fold change
RRIRHRPPRLPRPRPRPLYLPRP	-0.4
RRIRQRPPRLPRPRPRPAVSPRP	-0.0348
RRIRLRPPRLPRPRPRPQLHPRP	-0.123
RRIRHRPPRLPRPRPRPMNPPRP	-0.379
RRIRIRPPRLPRPRPRPGQYPRP	-0.221
RRIRRRPPRLPRPRPRPGLAPRP	0.763
RRIRVRPPRLPRPRPRPDTQPRP	0.0912
RRIRMRPPRLPRPRPRPLCRPRP	0.359
RRIRVRPPRLPRPRPRPYWWPRP	-0.208
RRIRPRPPRLPRPRPRPKNYPRP	-0.428
RRIRNRPPRLPRPRPRPGTTPRP	0.0321
RRIRPRPPRLPRPRPRPASHPRP	0.0473
RRIRVRPPRLPRPRPRPWYVPRP	-0.971
RRIRRRPPRLPRPRPRPGQHPRP	-0.0579
RRIRRRPPRLPRPRPRPSIIPRP	-0.332
RRIRGRPPRLPRPRPRPSYEPRP	0.0732
RRIRRRPPRLPRPRPRPTGQPRP	0.675
RRIRKRPPRLPRPRPRPYNQPRP	-0.312
RRIRGRPPRLPRPRPRPYEWPRP	-0.027
RRIRARPPRLPRPRPRPFAFPRP	0.552
RRIRNRPPRLPRPRPRPSYDPRP	-0.452
RRIRKRPPRLPRPRPRPRIIPRP	0.081
RRIRERPPRLPRPRPRPEHFPRP	-0.00973

Sequence	shrunken log2 fold change
RRIRRRPPRLPRPRPRPQNRPRP	0.318
RRIRKRPPRLPRPRPRPSYCPRP	-0.251
RRIRIRPPRLPRPRPRPQIYPRP	-1.08
RRIRSRPPRLPRPRPRPEVEPRP	0.112
RRIRTRPPRLPRPRPRPDGIPRP	-0.00822
RRIRNRPPRLPRPRPRPWGIPRP	-0.199
RRIRTRPPRLPRPRPRPMCLPRP	0.0631
RRIRYRPPRLPRPRPRPDNGPRP	-0.00114
RRIRGRPPRLPRPRPRPHLYPRP	0.155
RRIRCRPPRLPRPRPRPCKWPRP	-0.208
RRIRKRPPRLPRPRPRPHCNPRP	-0.275
RRIRLRPPRLPRPRPRPHICPRP	-0.162
RRIRIRPPRLPRPRPRPDPNPRP	-0.546
RRIRMRPPRLPRPRPRPEQCPRP	-0.00138
RRIRKRPPRLPRPRPRPFCLPRP	-0.0107
RRIRDRPPRLPRPRPRPNAHPRP	-0.0544
RRIRQRPPRLPRPRPRPRFTPRP	0.184
RRIRNRPPRLPRPRPRPDPIPRP	-0.143
RRIRSRPPRLPRPRPRPSPQPRP	-0.108
RRIRCRPPRLPRPRPRPKAKPRP	0.0298
RRIRERPPRLPRPRPRPFFYPRP	-0.258
RRIRLRPPRLPRPRPRPHNQPRP	-0.479
